These results are taken from patent publication US20250101129A1, “AFFINITY SUBSTANCE, COMPOUND, AND ANTIBODY AND THEIR SALTS” (Ajinomoto Co., Inc., priority 2022, published 2025).

Some results are limits rather than exact numbers.

Assay [1] concerns the target Recombinant human HER2-Fc (R&D Systems), biotinylated (human) (UniProt P04626). Description: SPR (Biacore T200), single cycle kinetics, ligand biotinylated HER2-Fc on Biotin CAPture chip, HBS-EP+, 1:1 binding model.
In assay [2] the target is Biotinylated recombinant human FcRn (Immunitrack) (human) (UniProt P55899). Description: SPR Biacore T200, biotinylated human FcRn on chip SA, association at pH 6.0, single cycle kinetics, 1:1 model; dissociated at pH 7.4. Background: Surface plasmon resonance follows binding to a sensor surface in real time, without labels.
The target in assay [3] is HER2 on SKBR-3 cells (HER2-positive) (UniProt P04626). Description: flow cytometry, primary antibody then Alexa Fluor 488 goat anti-human IgG (H+L), SKBR-3 cells; histogram peak between 10^3 and 10^4, gate from a little below 10^3. In general terms: A flow cytometer gives signals particle by particle.
Assay [4] deals with EGFR on A-431 cells (EGFR-positive) (UniProt P00533). Description: flow cytometry, primary antibody then Alexa Fluor 488 goat anti-human IgG (H+L), A-431 cells; histogram peak a little above 10^5, gate from a little above 10^4.
Assay [5] addresses Recombinant human HER2-Fc (R&D Systems), biotinylated (human) (UniProt P04626). Description: SPR Biacore T200, biotinylated human HER2-Fc on Biotin CAPture chip, antibody as analyte, single cycle kinetics, 1:1 model.
Assay [6] deals with EGFR on A-431 cells (EGFR-positive) (UniProt P00533). Description: flow cytometry on A-431 cells, Alexa Fluor 488 anti-human IgG secondary antibody.
In assay [7] the target is Recombinant human EGFR-Fc (R&D Systems), biotinylated (human) (UniProt P00533). The experiment in a line: SPR Biacore T200, biotinylated human EGFR-Fc on Biotin CAPture chip, antibody as analyte, single cycle kinetics, 1:1 model.
The target of assay [8] is EGFR on A-431 cells (EGFR-positive) (UniProt P00533). Description: flow cytometry, primary antibody then Alexa Fluor 488 goat anti-human IgG (H+L), A-431 cells; histogram peak at about 10^5, gate from a little above 10^4.
For assay [9] the target is unchanged. Description: flow cytometry on A431 (EGFR+) cells, fraction of cells in the positive gate, x axis EGFR-BL-1H, Alexa Fluor 488 anti-human IgG secondary antibody.
Assay [10] addresses PD-1 on CD3-activated human T cells (PD-1-positive) (human) (UniProt Q15116). The experiment in a line: flow cytometry on CD3-activated human T cells (PD-1+), fraction of cells in the positive gate, x axis PD-1-BL-1H, Alexa Fluor 488 anti-human IgG secondary antibody.
The target of assay [11] is HER2 on SKBR-3 cells (HER2-positive) (UniProt P04626). The experiment in a line: flow cytometry on SKBR3 (HER2+) cells, fraction of cells in the positive gate, x axis HER2-BL-1H, Alexa Fluor 488 anti-human IgG secondary antibody.
Assay [12] addresses Recombinant human PD-1-Fc (R&D Systems), biotinylated (human) (UniProt Q15116). Description: SPR Biacore T200, biotinylated human PD-1-Fc on Biotin CAPture chip, antibody as analyte, single cycle kinetics, 1:1 model.

Chain of PD-1 on CD3-activated human T cells (PD-1-positive) (human) (Q15116 25-288): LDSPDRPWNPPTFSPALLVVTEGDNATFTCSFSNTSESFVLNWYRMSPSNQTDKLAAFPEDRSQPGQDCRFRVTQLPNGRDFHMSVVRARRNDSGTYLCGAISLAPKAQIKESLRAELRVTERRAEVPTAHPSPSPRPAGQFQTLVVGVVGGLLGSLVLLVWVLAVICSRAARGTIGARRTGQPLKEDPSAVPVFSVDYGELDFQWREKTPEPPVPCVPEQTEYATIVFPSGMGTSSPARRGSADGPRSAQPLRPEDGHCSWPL
Chain of Recombinant human PD-1-Fc (R&D Systems), biotinylated (human) (Q15116 25-167 limits assumed): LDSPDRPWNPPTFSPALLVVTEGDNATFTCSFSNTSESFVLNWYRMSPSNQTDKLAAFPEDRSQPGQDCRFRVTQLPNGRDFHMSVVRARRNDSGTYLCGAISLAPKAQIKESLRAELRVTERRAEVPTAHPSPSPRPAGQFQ

“DAR1 bi-specific antibody (Trastuzumab-Cetuximab Fab) (M-4) (bispecific antibody)”: the Kd (in general, the concentration at which binding is half-saturated) in assay [1] was under 0.0019 nM; in assay [2] it was 2.4 nM; in assay [5] it was under 0.0019 nM. Further, the percent of cells in the positive gate in assay [3] was found to be 97.9%; in [4] it was 99.6%. In assay [6], this substance gave a percent of cells with fluorescence of over 98%.

In the case of “DAR1 bi-specific antibody (Cetuximab-Trastuzumab Fab) (M-3) (bispecific antibody)”, the values for the Kd in assay [7] and in assay [2] were 0.3 nM and 2.6 nM, respectively. For the same substance, the percent of cells in the positive gate worked out at 98.2% in [8] and 97.3% in assay [3]. The same substance yielded a percent of cells with fluorescence in assay [6] of over 98%.

For the substance “Tri-specific antibody (Pembrolizumab Fab-Cetuximab-Trastuzumab Fab) (M-2)”, the Positive cell (%) in assay [9] worked out at 98.9%; in assay [10] it was 21.4%; in [11], 97.2%. The Kd in assay [2] amounted to 2.4 nM; in [12], 1.1 nM. Also, the percent of cells with fluorescence in assay [6] is over 98%.
